# Laboratory results as given in patent US20120100159A1 (Genentech, published 2012).
# Key:
# [1] = biological target: T1, human TAT226 expressed on the surface of OVCAR3 cells (human, UniProt Q8N2G4 21-117); experiment: cell-based or functional assay
# T1 sequence: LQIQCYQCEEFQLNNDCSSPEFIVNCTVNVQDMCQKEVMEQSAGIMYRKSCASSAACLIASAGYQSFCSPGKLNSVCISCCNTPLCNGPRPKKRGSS
# [2] = biological target: T2, recombinant gD:human TAT226 fusion protein expressed on HCT116#9-4 cells (herpes simplex virus type 1; human, UniProt Q8N2G4 23-141); experiment: cell-based or functional assay
# T2 sequence: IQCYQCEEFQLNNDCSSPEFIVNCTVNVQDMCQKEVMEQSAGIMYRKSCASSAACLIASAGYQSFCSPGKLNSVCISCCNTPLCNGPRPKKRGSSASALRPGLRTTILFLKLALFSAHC
# [3] = biological target: T3, recombinant TAT226-His fusion protein (human, UniProt Q8N2G4 21-115); experiment: SPR, BIACORE 3000, IgG immobilised on CM5 chip, TAT226-His injected (0.7-500 nM), 25 C
# T3 construct: also called recombinant antigen; not shown: C-terminal polyhistidine tag
# T3 sequence: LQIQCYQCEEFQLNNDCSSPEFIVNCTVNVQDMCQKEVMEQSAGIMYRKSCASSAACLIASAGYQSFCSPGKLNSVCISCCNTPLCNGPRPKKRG
# Method: The binding affinity of YWO.49, YWO.49.B7, YWO.49.C9, YWO.49.H2, and YWO.49.H6 for recombinant antigen was determined by surface plasmon resonance measurement using a BIACORE® 3000 system (Biacore, Inc., Piscataway, N.J.). Briefly, carboxymethylated dextran biosensor chips (CM5, Biacore Inc.) were activated with N-ethyl-N′-(3-dimethylaminopropyl)-carbodiimide hydrochloride (EDC) and N-hydroxysuccinimide (NHS) according to the supplier's instructions. Anti-TAT226 antibody was diluted to 5 ug/ml with 10 mM sodium acetate, pH 4.8, before injection at a flow rate of 5 μl/minute to achieve approximately 500 response units (RU) of coupled antibody. Next, 1M ethanolamine was injected to block unreacted groups. For kinetics measurements, two-fold serial dilutions of TAT226-His (0.7 nM to 500 nM) were injected in PBS with 0.05% Tween 20 at 25° C. at a flow rate of 25 μl/min Association rates (kₒₙ) and dissociation rates (koff) were calculated using a simple one-to-one Langmuir binding model (BIAevaluation Software version 3.2). The equilibrium dissociation constant (Kd) was calculated as the ratio koff/kₒₙ.
# [4] = biological target: T1, human TAT226 expressed on the surface …; experiment: competition of iodinated antibody with unlabeled antibody on OVCAR3 cells, Scatchard analysis
# Method: The binding affinity of YWO.49.H2 and YWO.49.H6 for TAT226 expressed on the surface of OVCAR3 cells was examined using a competition assay. Briefly, labeled (iodinated) YWO.49.H2 or YWO.49.H6 was allowed to bind to OVCAR3 cells in the presence of unlabeled antibody. Binding affinity of the antibodies was determined in accordance with the Scatchard analysis methodology initially described in Munson et al., Anal. Biochem. 107:220 (1980).
Binder,"IC50, OVCAR3 in vitro cell killing assay (CellTiter-Glo, 5 days) [1] [nM]","IC50, in vitro cell killing assay on HCT116#9-4 transfectants (CellTiter-Glo, 3 days) [2] [nM]",Kd [3] [nM],Kd [4] [nM]
"YWO.49.H2-MC-vc-PAB-MMAF (antibody, V domains shown, MC-vc-PAB-MMAF conjugated to cysteine residues of the partially reduced antibody; average drug load 4.7 per antibody) VH: EVQLVESGGGLVQPGGSLRLSCAASGFTITNYGIHWVRQAPGKGLEWVGRIYPDSGATYYADSVKGRFTISADTSKNTAYLQMNSLRAEDTAVYYCARKLWVSLAPMDYWGQGTLVTVSS VL: DIQMTQSPSSLSASVGDRVTITCRASQDVSTAVAWYQQKPGKAPKLLIYSASFLYSGVPSRFSGSGSGTDFTLTISSLQPEDFATYYCQQSYGTPFIFGQGTKVEIKR",~0.005,~0.05,,
"YWO.49.H6-MC-vc-PAB-MMAE (antibody, V domains shown, MC-vc-PAB-MMAE conjugated to cysteine residues of the partially reduced antibody; average drug load 4.4 per antibody) VH: EVQLVESGGGLVQPGGSLRLSCAASGFTITNYGIHWVRQAPGKGLEWVGRIYPDSGATYYADSVKGRFTISADTSKNTAYLQMNSLRAEDTAVYYCARKLWISIAGMDYWGQGTLVTVSS VL: DIQMTQSPSSLSASVGDRVTITCRASQDVSTAVAWYQQKPGKAPKLLIYSASFLYSGVPSRFSGSGSGTDFTLTISSLQPEDFATYYCQHSYATPFTFGQGTKVEIKR",~0.2,,,
"YWO.49 (antibody, V domains shown, detected with anti-human IgG; also called anti-TAT226 monoclonal antibody YWO.49) VH: EVQLVESGGGLVQPGGSLRLSCAASGFTITNYGIHWVRQAPGKGLEWVGRIYPDSGATYYADSVKGRFTISADTSKNTAYLQMNSLRAEDTAVYYCARKLWVSRAGMDYWGQGTLVTVSS VL: DIQMTQSPSSLSASVGDRVTITCRASQDVSTAVAWYQQKPGKAPKLLIYSASFLYSGVPSRFSGSGSGTDFTLTISSLQPEDFATYYCQQSYTTPPTFGQGTKVEIKR",,,47.2,
"YWO.49.H2-MC-vc-PAB-MMAE (antibody, V domains shown, MC-vc-PAB-MMAE conjugated to cysteine residues of the partially reduced antibody; average drug load 3.8 per antibody) VH: EVQLVESGGGLVQPGGSLRLSCAASGFTITNYGIHWVRQAPGKGLEWVGRIYPDSGATYYADSVKGRFTISADTSKNTAYLQMNSLRAEDTAVYYCARKLWVSLAPMDYWGQGTLVTVSS VL: DIQMTQSPSSLSASVGDRVTITCRASQDVSTAVAWYQQKPGKAPKLLIYSASFLYSGVPSRFSGSGSGTDFTLTISSLQPEDFATYYCQQSYGTPFIFGQGTKVEIKR",~0.2,,,
"YWO.49.H6 (antibody, V domains shown, also called YWO.H6) VH: EVQLVESGGGLVQPGGSLRLSCAASGFTITNYGIHWVRQAPGKGLEWVGRIYPDSGATYYADSVKGRFTISADTSKNTAYLQMNSLRAEDTAVYYCARKLWISIAGMDYWGQGTLVTVSS VL: DIQMTQSPSSLSASVGDRVTITCRASQDVSTAVAWYQQKPGKAPKLLIYSASFLYSGVPSRFSGSGSGTDFTLTISSLQPEDFATYYCQHSYATPFTFGQGTKVEIKR",,,0.05,0.404
"YWO.49.H6-MC-vc-PAB-MMAF (antibody, V domains shown, MC-vc-PAB-MMAF conjugated to cysteine residues of the partially reduced antibody; average drug load 4.4 per antibody) VH: EVQLVESGGGLVQPGGSLRLSCAASGFTITNYGIHWVRQAPGKGLEWVGRIYPDSGATYYADSVKGRFTISADTSKNTAYLQMNSLRAEDTAVYYCARKLWISIAGMDYWGQGTLVTVSS VL: DIQMTQSPSSLSASVGDRVTITCRASQDVSTAVAWYQQKPGKAPKLLIYSASFLYSGVPSRFSGSGSGTDFTLTISSLQPEDFATYYCQHSYATPFTFGQGTKVEIKR",~0.005,~0.05,,
"YWO.49.H2 (antibody, V domains shown) VH: EVQLVESGGGLVQPGGSLRLSCAASGFTITNYGIHWVRQAPGKGLEWVGRIYPDSGATYYADSVKGRFTISADTSKNTAYLQMNSLRAEDTAVYYCARKLWVSLAPMDYWGQGTLVTVSS VL: DIQMTQSPSSLSASVGDRVTITCRASQDVSTAVAWYQQKPGKAPKLLIYSASFLYSGVPSRFSGSGSGTDFTLTISSLQPEDFATYYCQQSYGTPFIFGQGTKVEIKR",,,0.23,0.348
"YWO.49.C9 (antibody, V domains shown) VH: EVQLVESGGGLVQPGGSLRLSCAASGFTITNYGIHWVRQAPGKGLEWVGRIYPDSGATYYADSVKGRFTISADTSKNTAYLQMNSLRAEDTAVYYCARKLWVTLASMDYWGQGTLVTVSS VL: DIQMTQSPSSLSASVGDRVTITCRASQDVSTAVAWYQQKPGKAPKLLIYSASFLYSGVPSRFSGSGSGTDFTLTISSLQPEDFATYYCQKSYNTPPTFGQGTKVEIKR",,,< 0.03,
"YWO.49.B7 (antibody, V domains shown) VH: EVQLVESGGGLVQPGGSLRLSCAASGFTITNYGIHWVRQAPGKGLEWVGRIYPDSGATYYADSVKGRFTISADTSKNTAYLQMNSLRAEDTAVYYCARKLWVSLAAMDYWGQGTLVTVSS VL: DIQMTQSPSSLSASVGDRVTITCRASQDVSTAVAWYQQKPGKAPKLLIYSASFLYSGVPSRFSGSGSGTDFTLTISSLQPEDFATYYCQRSVFTPPAFGQGTKVEIKR",,,< 0.18,
